These results are taken from US10766960 (dated 2020).

T1: FcgRIIb (human, UniProt P31994)
T1 chain: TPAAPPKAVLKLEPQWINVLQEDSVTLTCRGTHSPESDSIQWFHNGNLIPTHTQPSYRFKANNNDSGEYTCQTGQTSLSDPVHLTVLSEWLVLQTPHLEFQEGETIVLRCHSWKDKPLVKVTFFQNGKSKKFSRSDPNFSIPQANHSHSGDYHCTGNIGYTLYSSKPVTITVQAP

T2: FcgRIa (human, UniProt P12314)
T2 chain: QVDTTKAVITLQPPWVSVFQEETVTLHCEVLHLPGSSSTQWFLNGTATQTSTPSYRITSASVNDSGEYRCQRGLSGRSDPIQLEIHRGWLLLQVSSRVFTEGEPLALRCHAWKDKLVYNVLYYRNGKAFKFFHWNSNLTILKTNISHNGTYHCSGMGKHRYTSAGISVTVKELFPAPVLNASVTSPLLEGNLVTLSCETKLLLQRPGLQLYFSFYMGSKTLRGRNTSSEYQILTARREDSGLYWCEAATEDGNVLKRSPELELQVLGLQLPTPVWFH

T3: FcgRIIa H (human, UniProt P12318)
T3 chain: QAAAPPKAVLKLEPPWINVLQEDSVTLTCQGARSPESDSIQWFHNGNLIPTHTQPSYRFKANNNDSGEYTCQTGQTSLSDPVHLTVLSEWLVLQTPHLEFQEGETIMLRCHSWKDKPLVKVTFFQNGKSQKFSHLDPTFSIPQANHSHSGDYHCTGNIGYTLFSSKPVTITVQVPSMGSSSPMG

T4: FcgRIIa R (human, UniProt P12318)
T4 chain: T3 chain with H134R

B1: H240-Kn214/H240-Hl076/L73-k0 (antibody)
chain 1: QDQLVQSGAEVKKPGASVKVSCKASGFNIKDTYIQWVRQAPGQGLEWMGRIDPLRKQTKYREKFEGRVTITADTSTNTAYMELSSLRSEDTAVYYCVRSGREFDYWGQGTLVTVSSASTKGPSVFPLAPSSKSTSGGTAALGCLVKDYFPEPVTVSWNSGALTSGVHTFPAVLQSSGLYSLSSVVTVPSSSLGTQTYICNVNHKPSNTKVDKKVEPKSCDKTHTCPPCPAPEGQWGPMVFLFPPKPKDTLMISRTPEVTCVVVDVSDEEPEVKFNWYVDGVEVHNAKTKPREEQYNATYRVVSVLTVLHQDWLNGKEYKCKVSNKALPAPIEKTISKAKGQPREPQVCTLPPSRDELTKNQVSLWCLVKGFYPSDIAVEWESNGQPENNYKTTPPVLDSDGSFFLYSKLTVDKSRWQQGNVFSCSVMHEALHNHYTQKSLSLSP
chain 2: QDQLVQSGAEVKKPGASVKVSCKASGFNIKDTYIQWVRQAPGQGLEWMGRIDPLRKQTKYREKFEGRVTITADTSTNTAYMELSSLRSEDTAVYYCVRSGREFDYWGQGTLVTVSSASTKGPSVFPLAPSSKSTSGGTAALGCLVKDYFPEPVTVSWNSGALTSGVHTFPAVLQSSGLYSLSSVVTVPSSSLGTQTYICNVNHKPSNTKVDKKVEPKSCDKTHTCPPCPAPELLGGPSVFLFPPKPKDTLMISRTPEVTCVVVDVSHEEPEVKFNWYVDGVEVHNAKTKPREEQYNSTYRVVSVLTVLHQDWLNGKEYKCKVSNDALPMPIEETISKAKGQPREPQVYTLPPSRCELTKNQVSLSCAVKGFYPSDIAVEWESNGQPENNYKTTPPVLDSDGSFFLVSKLTVDKSRWQQGNVFSCSVMHEALHNHYTQKSLSLSP
chain 3: DIQMTQSPSSLSASVGDRVTITCRASQDIHKYIAWYQQKPGQAPRLLIQYTSTLQPGVPSRFSGSGSGTDYTFTISSLQPEDIATYYCLQYEQLRTFGGGTKVEIKRTVAAPSVFIFPPSDEQLKSGTASVVCLLNNFYPREAKVQWKVDNALQSGNSQESVTEQDSKDSTYSLSSTLTLSKADYEKHKVYACEVTHQGLSSPVTKSFNRGEC
B2: H240-Kn211/H240-Hl076/L73-k0 (antibody)
chain 1: B1 chain 1 with G233M
chain 2: B1 chain 2
chain 3: B1 chain 3
B3: H240-Kn200/H240-Hl076/L73-k0 (antibody)
chain 1: B1 chain 1 with G233S
chain 2: B1 chain 2
chain 3: B1 chain 3
B4: H240-Kn219/H240-Hl068/L73-k0 (antibody)
chain 1: B1 chain 1 with G233I, Q234Y, E269D, A326D
chain 2: B1 chain 2 with M329K
chain 3: B1 chain 3
B5: H240-Kn217/H240-Hl068/L73-k0 (antibody)
chain 1: B1 chain 1 with G233D, Q234Y, E269D, A326D
chain 2: B1 chain 2 with M329K
chain 3: B1 chain 3
B6: H240-Kn220/H240-Hl068/L73-k0 (antibody)
chain 1: B1 chain 1 with G233M, Q234Y, E269D, A326D
chain 2: B1 chain 2 with M329K
chain 3: B1 chain 3
B7: H240-Kn199/H240-Hl068/L73-k0 (antibody)
chain 1: B1 chain 1 with G233L, Q234Y, E269D, A326D
chain 2: B1 chain 2 with M329K
chain 3: B1 chain 3
B8: H240-Kn223/H240-Hl068/L73-k0 (antibody)
chain 1: B1 chain 1 with Q234Y, E269D, A326D
chain 2: B1 chain 2 with M329K
chain 3: B1 chain 3
B9: H240-Kn208/H240-Hl076/L73-k0 (antibody)
chain 1: B1 chain 1 with G233D
chain 2: B1 chain 2
chain 3: B1 chain 3
B10: H240-Kn201/H240-Hl076/L73-k0 (antibody)
chain 1: B1 chain 1 with G233F
chain 2: B1 chain 2
chain 3: B1 chain 3
B11: H240-Kn216/H240-Hl068/L73-k0 (antibody)
chain 1: B1 chain 1 with G233V, Q234Y, E269D, A326D
chain 2: B1 chain 2 with M329K
chain 3: B1 chain 3
B12: H240-Kn202/H240-Hl076/L73-k0 (antibody)
chain 1: B1 chain 1 with G233E
chain 2: B1 chain 2
chain 3: B1 chain 3
B13: H240-Kn203/H240-Hl068/L73-k0 (antibody)
chain 1: B1 chain 1 with G233F, Q234Y, E269D, A326D
chain 2: B1 chain 2 with M329K
chain 3: B1 chain 3

Substitutions are numbered along the chain they refer to.

In one assay the target is T1, FcgRIIb. The assay can be described thus: SPR.
As to B1, the dissociation constant Kd was determined as 7100 nM. In other words, the single-digit micromolar range.

As to B2, the dissociation constant Kd amounted to 4200 nM.

On to B3, for which the equilibrium dissociation constant (Kd) stood at 6200 nM.

The molecule B4 registered a dissociation constant Kd of 90 nM. This Kd lies about 69-fold lower than the previous one.

Consider B5, for which the Kd is 120 nM.

B6 yielded a Kd of 160 nM. The Kd values of the last two molecules are within 1.5-fold of each other.

In turn, B7 gave a dissociation constant Kd of 130 nM.

B8 had a Kd of 280 nM.

Molecule B9 returned a dissociation constant Kd of 3200 nM.

In turn, B10 yielded a Kd of 5400 nM.

On to B11, for which the dissociation constant (Kd) was found to be 160 nM.

In turn, B12 showed a Kd of 4100 nM.

On to B13, for which the affinity, expressed as Kd, was 270 nM.

Another assay concerns the target T2, FcgRIa. Nature of the assay: SPR.
B1 came in with a Kd of 0.061 nM. In other words, the picomolar range.

On to B2, for which the affinity, expressed as Kd, was 0.084 nM.

Molecule B3 gave an equilibrium dissociation constant (Kd) of 0.088 nM. This Kd and that of the molecule before are within 1.5-fold of each other.

In turn, B4 registered an equilibrium dissociation constant (Kd) of 0.15 nM.

As to B5, the affinity, expressed as Kd, was 0.17 nM.

As for B6, the Kd was 0.15 nM.

B7 returned an equilibrium dissociation constant (Kd) of 0.31 nM.

B8: the dissociation constant (Kd) turned out to be 0.13 nM.

Molecule B9 gave a Kd of 0.1 nM.

For the molecule B10, the Kd was 0.058 nM.

In turn, B11 displayed a Kd of 0.17 nM.

B12 came in with a Kd of 0.071 nM.

For B13, the Kd was found to be 0.43 nM.

The target in a further assay is FcgRIIIa V (human, UniProt P08637). The assay can be described thus: SPR.
FcgRIIIa V, sequence (P08637 17-208 F176V): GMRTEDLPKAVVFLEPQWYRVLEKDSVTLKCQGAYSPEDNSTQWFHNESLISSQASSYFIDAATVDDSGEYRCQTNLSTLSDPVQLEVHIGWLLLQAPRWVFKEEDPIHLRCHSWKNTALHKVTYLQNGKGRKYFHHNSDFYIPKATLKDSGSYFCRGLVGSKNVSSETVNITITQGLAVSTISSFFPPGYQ
On to B1, for which binding was put at a Kd of 0.8 nM.

For the molecule B2, the equilibrium dissociation constant (Kd) was determined as 0.52 nM.

In turn, B3 registered an equilibrium dissociation constant (Kd) of 0.59 nM.

For the molecule B4, the Kd was determined as 0.49 nM.

Consider B5, for which the dissociation constant (Kd) stood at 0.38 nM.

Turning to B6, the Kd turned out to be 0.5 nM. The Kd values of the last two molecules are within 1.5-fold of each other.

As to B7, the affinity, expressed as Kd, was 0.41 nM. This Kd and that of the molecule before are within 1.5-fold of each other.

On to B8, for which the equilibrium dissociation constant (Kd) was found to be 0.57 nM.

In turn, B9 displayed a Kd of 0.4 nM.

Molecule B10 displayed a Kd of 0.36 nM.

In turn, B11 yielded a Kd of 0.46 nM.

In turn, B12 yielded a Kd of 0.38 nM.

On to B13, for which the Kd amounted to 0.76 nM.

The target of another assay is T3, FcgRIIa H. Nature of the assay: SPR.
As for B1, the dissociation constant (Kd) came out at 330 nM.

B2 gave a Kd of 200 nM.

In turn, B3 had a dissociation constant (Kd) of 230 nM. The Kd values of the last two molecules are within 1.5-fold of each other.

On to B4, for which the dissociation constant Kd came to 20 nM. This Kd lies about 12-fold lower than the previous one.

B5: the Kd came to 76 nM.

Molecule B6 showed a dissociation constant Kd of 34 nM.

Regarding B7, binding was put at a Kd of 27 nM.

Molecule B8 gave a Kd of 94 nM.

For the molecule B9, the equilibrium dissociation constant (Kd) amounted to 310 nM.

B10 registered a Kd of 140 nM.

With B11, the affinity, expressed as Kd, was 32 nM. This Kd lies about 4.4-fold lower than the previous one.

Turning to B12, the Kd was found to be 360 nM.

The molecule B13 registered a dissociation constant Kd of 49 nM.

For another assay, the target named is T4, FcgRIIa R. The assay can be described thus: SPR.
B1 yielded a Kd of 1100 nM.

Molecule B2 gave a Kd of 550 nM. Against the preceding molecule, the Kd is about 2-fold lower.

B3 came in with a Kd of 790 nM.

Turning to B4, binding was put at a Kd of 14 nM.

With B5, the Kd was found to be 28 nM. Against the preceding molecule, the Kd is about 2-fold higher.

B6 registered a Kd of 25 nM.

For the molecule B7, the Kd came out at 20 nM.

On to B8, for which the dissociation constant (Kd) turned out to be 62 nM.

Take B9: binding was put at a Kd of 500 nM.

B10 had a Kd of 720 nM.

B11 gave a Kd of 23 nM.

In turn, B12 gave an equilibrium dissociation constant (Kd) of 640 nM. This Kd lies about 28-fold higher than the previous one.

In turn, B13 came in with a Kd of 46 nM.

For a further assay, the target named is FcgRIIIa F (human, UniProt P08637). The assay can be described thus: SPR.
FcgRIIIa F, sequence (P08637 17-208): as the sequence (P08637 17-208 F176V) above, with V160F counted along it
The molecule B1 came in with a Kd of 3.4 nM.

In turn, B2 returned a Kd of 1.9 nM.

For B3, the Kd was found to be 2.4 nM. The Kd values of the last two molecules are within 1.5-fold of each other.

In turn, B4 showed a Kd of 2.7 nM.

The molecule B5 yielded a Kd of 2.4 nM.

Molecule B6 gave a Kd of 3.5 nM.

For B7, binding was put at a Kd of 2.3 nM.

On to B8, for which binding was characterised by a dissociation constant (Kd) of 4.2 nM. Against the preceding molecule, the Kd is about 1.8-fold higher.

Molecule B9 yielded a Kd of 1.8 nM.

B10 showed a dissociation constant (Kd) of 1.8 nM.

B11: binding was characterised by a dissociation constant (Kd) of 3.4 nM.

The molecule B12 had a dissociation constant (Kd) of 1.6 nM.

As for B13, the affinity, expressed as Kd, was 3.4 nM.
